Experiment [1] has as its target Gαi of δOR-HEK293 cells (endogenous, receptor-activated). As to the kind of experiment: cell-based or functional assay.
Experiment [2] has as its target Gαi3 transiently overexpressed in COS7 cells. Put plainly: cAMP agarose precipitation from COS7 lysates after 15 min forskolin, immunoblot densitometry. In general terms: A western blot detects proteins with antibodies after separation by electrophoresis.

In experiment [1], “endogenous PKA regulatory subunits (R; RII/RegII) of δOR-HEK293 cells, cAMP-activated” returned a sensitivity of the MAPK pathway (SNC80-mediated ERK1/2 phosphorylation) to stimulation by the δOR agonist of 7 fold.

Consider “endogenous PKA regulatory subunits (R/Reg) of COS7 cells, bound to 2AHA-cAMP-coupled agarose beads”, for which the fold enrichment of R:Gαi3 complexes (forskolin pre-treatment against basal conditions) in experiment [2] turned out to be 3.8 fold.
